Patent publication US6348317B1, “Fluorescent and DNA cleavage properties of peptide/dye conjugates” (The Arizona Board of Regents, priority 1999, dated 2002)
Where two headings read alike, the source gives them in different places. No end group written: not given here.

Legend:
[1] = target: poly(dG)-poly(dC) 20-mer; assay: Thiazole orange total fluorescence titration with non-target DNA; conditions: 50 nM TO-ZF or TO; fit to equation 2; read-out: dissociation constant, non-specific binding
[2] = target: fluorescein labeled GRE2 sequence dsDNA (F-GRE2); assay: Total fluorescence quenching (energy transfer) of fluorescein labeled DNA; type: binding
Description: Fluorescence Measurements. Steady state fluorescence anisotropy measurements were carried out in 20 mM Tris (pH 7.9), 30 mM NaCl, 20 mM KCl, 1 mM MgCl2, and 5% glycerol. […] DNA samples used were either the non-labeled sequences shown in FIG. 2 or a fluorescein labeled duplex with a sequence matching GRE2 (FIG. 2).
For fluorescein labeled DNA measurements, the excitation wavelength was 491 nm and the emission was recorded at 521 nm with a 1.0 nm slit width. Titrations were performed holding the concentration of fluorescein-labeled DNA constant and increasing the concentration of TO, ZF or TO-ZF as indicated. To correct for the small amount of background fluorescence from TO in these measurements, control experiments were performed in parallel using DNA that was not fluorescein labeled, but was otherwise identical to the labeled DNA fragments. The thiazole orange fluorescence intensity measured in the control experiments was subtracted from the total fluorescence intensity for each data point. Under the excitation conditions of these measurements, the contribution to fluorescence by TO at 521 nm was less than 5% of the maximum fluorescence signal observed in the experiment. Even at the point in the titration where the maximum quenching of fluorescein fluorescence was observed (the point of lowest total fluorescence in the measurement), less than half of the fluorescence was due to TO, and this could accurately be removed by subtraction of the control value. Each point is an average of 60 measurements, and each titration was performed independently three times.
Total fluorescence data were collected in parallel to the anisotropy measurements and were calculated from raw data as the fluorescence intensity in the vertical plane plus two times the fluorescence intensity of the horizontal plane, (TF=Ivv+2Ivh). These values were used to determine the percent of the maximum fluorescence for each point along the titration and fit to equation 2. [formula] […]
Fluorescence changes upon binding of TO, ZF and TO-ZF to GRE containing duplex DNA. Equilibrium binding of the non-labeled zinc finger (ZF), unconjugated thiazole orange (TO) and thiazole orange-zinc finger conjugate (TO-ZF) to fluorescein labeled GRE2 sequence dsDNA was measured by both fluorescence anisotropy and total fluorescence. […] For fluorescein fluorescence, excitation was at 491 nm and emission was detected at 521 nm. […] Changes in the steady-state anisotropy of the fluorescein fluorescence from the labeled GRE sequence containing DNA (F-GRE2) can arise from two sources. […] By comparison, the amino acid zinc finger Xfin-31 was determined to have a dissociation constant of approximately 1 μM, M. S. Lee, et al., FEBS 279:289-294 (1991), whereas, the 66 amino acid zinc finger from GATA-1 has a dissociation constant of 10 nM. […]

[3] = target: dsDNA; conditions: cited from earlier work
[4] = system: Hin recombinase consensus sequence (hixL) dsDNA; assay: Total fluorescence reverse titration of conjugate with nonlabeled consensus DNA; type: binding, S. typhimurium
Description: Fluorescence Measurements. Steady state fluorescence anisotropy and total fluorescence measurements were performed as forward and reverse titrations, respectively, as described previously, M. Thompson, et al., supra, 2000. Forward titrations of the tetramethylrhodamine labeled DNA (TMR-DNA) with nonlabeled DNA-binding domains were performed at 10 nM TMR-DNA. Vertical excitation was at 542 nm with detection in the verticle and horizontal planes at 582 nm. Reverse titrations of 1 nM of the appropriate conjugate were titrated with nonlabeled DNA. Excitation and emission detection was at 480 nm and 510 nm for oxazole yellow and 510 nm and 535 nm for thiazole orange samples. Salt dependence studies were performed by titrating an appropriate amount of 1 M NaCl in the same Tris buffer to yield the indicated final salt concentration. Temperature dependence studies were performed by incubating each sample for 30 minutes at the given temperature. The temperature of the sample was held constant by pumping water through the cuvette holder from a temperature equilibrated water bath. Each titration was performed at least 3 times.
Determination of thermodynamic functions. The contribution of the hydrophobic effect and the polyelectrolyte effect to the stability of the conjugate or DNA-binding domain—DNA complex is assessed by analysis of the dependence of the observed association equilibrium constant Kobs for a range of temperatures and salt concentrations as in the following: [formula]
where, [P] eq is the concentration of the conjugate or DNA-binding domain, [D] eq is the concentration of DNA, and [PD] eq is the concentration of bound complex at equilibrium. The analysis is based on the assumption that this is a single-step bimolecular reaction.
Specific binding by the dye labeled peptides (conjugates). The binding affinity of the two dye labeled peptides comprising the Hin recombinase and Tc3 transposase DNA-binding domains conjugated to oxazole yellow and thiazole orange, respectively, were determined. In this case, the total fluorescence intensity can be used to determine the binding affinity by these systems. […] In addition, the bound and free populations of the conjugate, and therefore the dye, present at equilibrium have such an extreme increase in quantum yield (˜1000-5000-fold) that the total fluorescence from the system is a very sensitive and accurate way to monitor binding. Note that each oligonucleotide shown was hybridized to […] forming a dsDNA segment.
In FIG. 9, semi-log plot of the total fluorescence of I nM conjugate is plotted as the log of the concentration of nonlabeled DNA containing each respective consensus sequence. The solid lines represent a fit for the percent of the maximal fluorescence values at 298 K, 0.150 M Na+, (●),313 K, 0.150 M Na+ (t) and 298 K, 0.250 M Na+(▪). The binding constants (Kobs) determined from these curves and the corresponding binding free energies (DG°) are given in Table 1 for the range of salt concentrations (0.15 to 0.25 M Na+) and temperatures (275 to 313 K) investigated. The equilibrium constant decreases 7- and 10-fold for the TOTc3 and YOHin, respectively, when the salt concentration is increased from 0.15 to 0.25 M salt.

[5] = target: T1, TO-ZF (thiazole orange-GR zinc finger conjugate) (UniProt P06536 SEQ:1-28); assay: TO fluorescence titration; single G to A change in half-site; conditions: protein: synthetic; tags: thiazole orange on Lys epsilon-amine (first residue coupled to resin); synthetic solid-phase peptide (text states 29 aa, listing 28 aa), Zn-loaded
T1 chain: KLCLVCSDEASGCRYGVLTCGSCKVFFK

[6] = target: T2, TOTc3 (thiazole orange-Tc3 transposase DNA-binding domain, residues 202-253) (UniProt P34257 SEQ:1-51); assay: 298 K, 0.150 M Na+; 275 K 22e6, 293 K 66e6, 313 K 22e6; 298 K 0.250 M Na+ 17e6; conditions: protein: synthetic; tags: thiazole orange covalently attached; synthetic solid-phase peptide (text states 52 aa, listing 51 aa)
T2 chain: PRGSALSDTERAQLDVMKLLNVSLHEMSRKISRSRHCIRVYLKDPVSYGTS

[7] = target: T1, TO-ZF (thiazole orange-GR zinc finger …); assay: TO fluorescence titration; same buffer; conditions: protein: synthetic; tags: thiazole orange on Lys epsilon-amine (first residue coupled to resin); synthetic solid-phase peptide (text states 29 aa, listing 28 aa), Zn-loaded
[8] = target: T1, TO-ZF (thiazole orange-GR zinc finger …); assay: same as poly(dG)-poly(dC) within experimental error; conditions: protein: synthetic; tags: thiazole orange on Lys epsilon-amine (first residue coupled to resin); synthetic solid-phase peptide (text states 29 aa, listing 28 aa), Zn-loaded
[9] = target: T1, TO-ZF (thiazole orange-GR zinc finger …); assay: TO fluorescence titration; 20 mM Tris pH 7.9, 30 mM NaCl, 20 mM KCl, 1 mM MgCl2, 5% glycerol, ZnCl2; conditions: protein: synthetic; tags: thiazole orange on Lys epsilon-amine (first residue coupled to resin); synthetic solid-phase peptide (text states 29 aa, listing 28 aa), Zn-loaded
[10] = target: T1, TO-ZF (thiazole orange-GR zinc finger …); assay: TO fluorescence titration; two base changes vs GRE; conditions: protein: synthetic; tags: thiazole orange on Lys epsilon-amine (first residue coupled to resin); synthetic solid-phase peptide (text states 29 aa, listing 28 aa), Zn-loaded
[11] = target: T1, TO-ZF (thiazole orange-GR zinc finger …); assay: TO fluorescence titration; single base change in half-site; conditions: protein: synthetic; tags: thiazole orange on Lys epsilon-amine (first residue coupled to resin); synthetic solid-phase peptide (text states 29 aa, listing 28 aa), Zn-loaded
[12] = target: T3, YOHin (oxazole yellow-Hin recombinase DNA-binding domain, residues 139-190) (UniProt P03013 SEQ:1-52); assay: 298 K, 0.150 M Na+; 275 K 22e6, 293 K 143e6, 313 K 29e6; 298 K 0.250 M Na+ 14e6; conditions: protein: synthetic; tags: oxazole yellow covalently attached; synthetic solid-phase peptide
T3 chain: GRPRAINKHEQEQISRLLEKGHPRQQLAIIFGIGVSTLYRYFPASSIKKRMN

Molecule: CN1C(=Cc2cc[n+](C)c3ccccc23)Sc2ccccc21 [TO, thiazole orange]
- Kd [1]: 2400 nM
- Kd ([2]; 50 nM F-GRE2, interpretation cautioned (many binding sites), read-out: dissociation constant from quenching curve): 2400 nM
- change in total fluorescein fluorescence over the titration ([2]; excitation 491 nm, emission 521 nm): large decreases in steady state fluorescence
- Kd ([3]; 5-fold higher salt concentration, Nygren et al., Biopolymers 1998, read-out: dissociation constant for binding to dsDNA): ~3000 nM
- Kd ([3]; Haugland 1996, Netzel et al. 1995, read-out: Kd (moderate affinity DNA binding)): ~10000 nM

Molecule: YOHin: oxazole yellow conjugated to the 52 amino acid Hin DNA binding domain, residues 139-190 of Hin recombinase (GRPRAINKHEQEQISRLLEKGHPRQQLAIIFGIGVSTLYRYFPASRIKKRMN; also: oxazole yellow conjugated, site not given here; UniProt P03013 139-190, looked up, fragment)
- decrease of equilibrium constant when salt is increased from 0.15 to 0.25 M ([4]; 0.15 to 0.25 M salt): 10 fold
- Kobs ([4]; 275 K, 0.150 M Na+): 22 (M^−1) × 10^−6
- ΔG° ([4]; 275 K, 0.150 M Na+): -9.2 kcal/mol
- Kobs ([4]; 278 K, 0.150 M Na+): 21 (M^−1) × 10^−6
- ΔG° ([4]; 278 K, 0.150 M Na+): -9.3 kcal/mol
- Kobs ([4]; 283 K, 0.150 M Na+): 40 (M^−1) × 10^−6
- ΔG° ([4]; 283 K, 0.150 M Na+): -9.8 kcal/mol
- Kobs ([4]; 288 K, 0.150 M Na+): 61 (M^−1) × 10^−6
- ΔG° ([4]; 288 K, 0.150 M Na+): -10.3 kcal/mol
- Kobs ([4]; 293 K, 0.150 M Na+): 143 (M^−1) × 10^−6
- ΔG° ([4]; 293 K, 0.150 M Na+): -10.9 kcal/mol
- Kobs ([4]; 298 K, 0.150 M Na+): 83 (M^−1) × 10^−6
- ΔG° ([4]; 298 K, 0.150 M Na+): -10.8 kcal/mol
- Kobs ([4]; 298 K, 0.175 M Na+): 67 (M^−1) × 10^−6
- ΔG° ([4]; 298 K, 0.175 M Na+): -10.7 kcal/mol
- Kobs ([4]; 298 K, 0.200 M Na+): 37 (M^−1) × 10^−6
- ΔG° ([4]; 298 K, 0.200 M Na+): -10.3 kcal/mol
- Kobs ([4]; 298 K, 0.225 M Na+): 29 (M^−1) × 10^−6
- ΔG° ([4]; 298 K, 0.225 M Na+): -10.2 kcal/mol
- Kobs ([4]; 298 K, 0.250 M Na+): 14 (M^−1) × 10^−6
- ΔG° ([4]; 298 K, 0.250 M Na+): -9.8 kcal/mol
- Kobs ([4]; 303 K, 0.150 M Na+): 60 (M^−1) × 10^−6
- ΔG° ([4]; 303 K, 0.150 M Na+): -10.8 kcal/mol
- Kobs ([4]; 308 K, 0.150 M Na+): 41 (M^−1) × 10^−6
- ΔG° ([4]; 308 K, 0.150 M Na+): -10.7 kcal/mol
- Kobs ([4]; 313 K, 0.150 M Na+): 29 (M^−1) × 10^−6
- ΔG° ([4]; 313 K, 0.150 M Na+): -10.7 kcal/mol

B1: GRE3 (dsDNA)
DNA 1: TCATACATCTAACTATTCTATCA
DNA 2: TGATAGAATAGTTAGATGTATGA
- Kd [5]: 57 nM

B2: Tc3 consensus oligonucleotide (dsDNA)
DNA 1: ATCGGCACGATGCTAGTTCTATAGGACCCCCC
DNA 2: GGGGGGTCCTATAGAACTAGCATCGTGCCGAT
- Ka [6]: 2.45e+08 M⁻¹

B3: GRE2 (dsDNA)
DNA 1: TGATACGGCTGACTGTTCTATGA
DNA 2: TCATAGAACAGTCAGCCGTATCA
- Kd [7]: 25 nM

B4: (dGdC)20 (dsDNA)
DNA 1: GCGCGCGCGCGCGCGCGCGCGCGCGCGCGCGCGCGCGCGC
DNA 2: GCGCGCGCGCGCGCGCGCGCGCGCGCGCGCGCGCGCGCGC
modifications: [none]
- Kd [8]: ~1100 nM

B5: GRE1 (dsDNA)
DNA 1: TCATACCACTAACTGTTCTATCA
DNA 2: TGATAGAACAGTTAGTGGTATGA
- Kd [9]: 25 nM

B6: ERE (dsDNA)
DNA 1: TCATACATCTAACTGACCTATCA
DNA 2: TGATAGGTCAGTTAGATGTATGA
- Kd [10]: 810 nM

B7: GRE4 (dsDNA)
DNA 1: TCATACATCTAACTGTCCTATCA
DNA 2: TGATAGGACAGTTAGATGTATGA
- Kd [11]: 220 nM

B8: hixL (Hin consensus) oligonucleotide (dsDNA)
DNA 1: TCTTATCAAAAACACTATCGTCGCACGGCTAC
DNA 2: GTAGCCGTGCGACGATAGTGTTTTTGATAAGA
- Ka [12]: 8.3e+07 M⁻¹
